Data published in patent US20170267766A1 (PIERRE FABRE MEDICAMENT, published 2017).
Positions count from the first letter of the chain named.

Experiments:
[1] = biological target: T1, human IGF-1R (native, on cells) (human, UniProt P08069 31-1367); test: cell-based or functional assay
[2] = biological target: T2, rhIR protein (R&D Systems, cat No 1544-IR/CF) (human, UniProt P06213-2 28-944); test: ELISA, coated rhIR 1 ug/ml
T2 construct: extracellular domain; bought; also called rh Insulin R; recombinant human Insulin Receptor
Method: (§1) In addition three ELISA were performed (either before or after cloning) to study the binding of antibodies on the recombinant human (hIGF-1R) and murine (mIGF-1R) proteins, and on the recombinant human Insulin Receptor (hIR) protein. […] The plates were then blocked with PBS containing 0.5% gelatin (#22151, Serva Electrophoresis GmbH, Heidelberg, Germany) for 2 h at 37° C. Once the saturation buffer discarded by flicking plates, 100 μl of each supernatant dilution were added to the wells (either undiluted hybridoma supernatant either supernatant serial dilutions) and incubated for 1 h at 37° C. […] Then, ELISA plates were washed 3-times and the TMB (#UP664782, Uptima, Interchim, France) substrate is added. After a 10 min incubation time at room temperature, the reaction was stopped using 1 M sulfuric acid and the optical density at 450 nm is measured.

[3] = biological target: T1, human IGF-1R (native, on cells); test: cell-based or functional assay; remark: listed apart in the source
[4] = biological target: T3, monkey IGF-1R (on COS-7 cells) (African green monkey); test: cell-based or functional assay
[5] = biological target: T1, human IGF-1R (native, on cells); test: FACS, MCF7, 4°C, Ab 5 ug/ml
Method: Additionally an internalization assay was performed in order to select only internalizing antibodies. For this assay, the MCF7 tumor cell line was cultured in RMPI 1640 without phenol red with 1% L-glutamine and 10% of […] for 3 days before experiment. Cells were then detached using trypsin and 100 μl of a cell suspension at 4·10⁵ cell/ml are plated in 96-multiwell plates in RPMI1640 without phenol red with 1% L-glutamine and 5% FBS. After a 2 min centrifugation at 2000 rpm, cells were resupended in 50 μl of hybridoma supernatant or control antibody solutions (positive and isotype controls at 1 μg/ml). After a 20 min incubation time at 4° C., cells were centrifuged 2 min at 2000 rpm and resuspended in either cold (4° C.) or warm (37° C.) complete culture medium. Cells were then incubated for 2 hours either at 37° C. or at 4° C. Then cells were washed three times with FACS buffer. An Alexa 488-labeled goat anti-mouse IgG antibody was incubated for 20 minutes and cells were washed three times before FACS analysis on propidium iodide negative cell population.

[6] = biological target: T4, rmIGF-1R protein (R&D Systems, cat No 6630-GR/Fc) (murine, UniProt Q60751 31-936); test: ELISA, coated rmIGF-1R (Table 8)
T4 construct: extracellular domain; bought; also called murine extracellular domain (ECD) of IGF-1R; not shown: Fc only implied by the catalogue number; not described
Method: as §1

[7] = biological target: T1, human IGF-1R (native, on cells); test: cell-based or functional assay; remark: listed apart in the source
[8] = biological target: T1, human IGF-1R (native, on cells); test: FACS, Tf hIGF1R+ cells, Ab 5 ug/ml
[9] = biological target: T4, rmIGF-1R protein (R&D Systems, cat No …); test: ELISA, coated rm IGF-1R, SNT 5 ug/ml
Method: as §1

[10] = biological target: T5, human insulin receptor (on cells) (human, UniProt P06213 28-1382); test: FACS on hIR+ transfected cells, 4°C
T5 construct: whole, on cells; on stably transfected cells or on IM9 cells; also called hIR; IR
Method: (§2) In order to verify the absence of binding of both murine and chimeric antibodies on hIR, a stable cell line expressing the human IR was used. The recognition of human cell surface hIR by both murine and chimeric Ab was performed by FACS analyses. Increasing concentrations of either the murine or the chimeric mAbs were incubated on the hIR′ transfected cell line for 20 minutes at 4° C. in FACS buffer (PBS, 0.1% BSA, 0.01% NaN₃). Cells were then washed 3 times and incubated with the appropriate secondary antibody coupled with Alexa 488 before being incubated for 20 additional minutes at 4° C. in the dark and then washed 3 times in FACS buffer. The binding of anti-IGF-1R antibodies was immediately performed on viable cells which were identified using propidium iodide (that stains dead cells). The binding EC₅₀ expressed in molarity (M) was calculated using a nonlinear regression analysis (GraphPad Prims 4.0). […] The c9G4 was introduced as an irrelevant antibody (isotype control).

[11] = biological target: T1, human IGF-1R (native, on cells); test: FACS on MCF-7 cells, 4°C; inset table, axis log [M]
Method: The binding properties of a series of anti-IGF-1R antibodies were evaluated by FACS analyses on the human MCF-7 breast adenocarcinoma cell line (ATCC#HTB-22) using increasing antibody concentrations. For that purpose, cells (1×10⁶ cells/ml) were incubated with anti-IGF-1R antibodies for 20 min. at 4° C. in FACS buffer (PBS, 0.1% BSA, 0.01% NaN₃). They were then washed 3 times and incubated with the appropriate secondary antibody coupled with Alexa 488 for 20 additional minutes at 4° C. in the dark before being washed 3 times in FACS buffer. The binding of anti-IGF-1R antibodies was immediately performed on viable cells which were identified using propidium iodide (that stains dead cells). The maximum of signal intensity obtained with each antibody was designed as Bₘₐₓ and expressed in mean of fluorescence intensity (MFI). The EC₅₀ of binding expressed in molarity (M) was calculated using a nonlinear regression analysis (GraphPad Prims 4.0).

[12] = biological target: T3, monkey IGF-1R (on COS-7 cells); test: FACS on COS-7 cells, 4°C; inset table, axis log [M]
Method: In order to evaluate the binding of anti-IGF-1R antibodies on monkey IGF-1R, the binding of both murine and chimeric anti-hIGF-1R antibodies was evaluated by FACS analyses on COS-7 cell line using increasing antibody concentrations. Cells (1×10⁶ cells/ml) were incubated with anti-IGF-1R antibodies for 20 minutes at 4° C. in FACS buffer (PBS, 0.1% BSA, 0.01% NaN₃). Then, cells were washed 3 times and incubated with the appropriate secondary antibody coupled with Alexa 488 before being incubated for 20 additional minutes at 4° C. in the dark and finally washed 3 times in FACS buffer. The binding of anti-IGF-1R antibodies was immediately evaluated on viable cells identified using propidium iodide (that stains dead cells). The binding EC₅₀ expressed in molarity (M) was calculated using a nonlinear regression analysis (GraphPad Prims 4.0).

[13] = biological target: T3, monkey IGF-1R (on COS-7 cells); test: FACS, Cos-7 (monkey IGF1R+), Ab 5 ug/ml
[14] = biological target: T5, human insulin receptor (on cells); test: FACS on IM-9 cells (express hIR), 4°C
Method: as §2
For this FACS analysis, the protocol was the same as the one described previously and murine anti-IGF-1R antibodies were used in order to prevent the cross reactivity of the secondary anti-human Ab (IM9 cells express human Ig on their cell surface).

T4 sequence (Q60751 31-936): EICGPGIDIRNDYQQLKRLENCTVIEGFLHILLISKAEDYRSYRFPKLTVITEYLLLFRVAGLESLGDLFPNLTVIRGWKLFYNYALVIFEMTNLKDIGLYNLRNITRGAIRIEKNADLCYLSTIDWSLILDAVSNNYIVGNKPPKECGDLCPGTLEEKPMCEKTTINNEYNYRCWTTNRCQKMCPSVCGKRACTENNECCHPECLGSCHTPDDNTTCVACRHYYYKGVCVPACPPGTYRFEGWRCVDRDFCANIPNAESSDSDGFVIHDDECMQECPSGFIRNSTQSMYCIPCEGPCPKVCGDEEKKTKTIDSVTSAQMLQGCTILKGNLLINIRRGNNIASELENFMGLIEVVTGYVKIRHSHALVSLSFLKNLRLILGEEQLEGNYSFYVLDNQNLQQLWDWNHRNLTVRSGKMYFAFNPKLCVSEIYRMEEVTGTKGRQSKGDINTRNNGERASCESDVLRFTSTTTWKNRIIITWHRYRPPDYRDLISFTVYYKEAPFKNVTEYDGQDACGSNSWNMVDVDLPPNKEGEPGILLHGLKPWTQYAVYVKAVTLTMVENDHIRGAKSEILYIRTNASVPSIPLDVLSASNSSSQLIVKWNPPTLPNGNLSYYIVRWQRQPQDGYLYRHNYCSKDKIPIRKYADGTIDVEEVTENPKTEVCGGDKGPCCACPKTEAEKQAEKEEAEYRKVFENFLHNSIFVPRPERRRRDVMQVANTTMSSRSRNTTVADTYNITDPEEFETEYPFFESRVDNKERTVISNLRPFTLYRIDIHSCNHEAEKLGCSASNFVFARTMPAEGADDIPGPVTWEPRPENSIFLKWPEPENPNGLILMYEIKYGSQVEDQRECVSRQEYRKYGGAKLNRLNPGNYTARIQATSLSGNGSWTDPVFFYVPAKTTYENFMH

B1: m208F2 (antibody, V domains shown)
VH: QVQLQQSGPELVKPGASVKMSCKASGYTFTSYYIYWVKQRPGQGLEWLGWIWPGDGSTKYNEKFKDKTTLTADKSSNTAYMFLSSLTSEDSAVYFCASPMITPNYAMDYWGQGASVTVSS
VL: DIQMTQTTSSLSASLGDRVTISCRASQDISKYLNWYQQQPDGTIKLLIYYTSRLHSGVPSRFSGRGSGTDYSLTISNVEQEDIATYFCQQGSTLPYTFGGGTKLEIK
notes: murine mAb, hybridoma CNCM I-4757, group G2; also called murine 208F2
hIGF-1R phosphorylation in response to IGF-1 (western blot, MCF-7) [1]: > 80% | binding result [2]: no binding | % remaining rh IGF1R [3]: 27% | MFI 37°C (internalisation assay, MCF7) [3]: 94 MFI | Δ (MFI 4°C - MFI 37°C) [3]: 261 MFI | % internalisation [4]: 74% | ΔMFI [4]: 53 MFI | MFI 4°C [5]: 355 MFI | binding result [6]: no binding | HalfLife (decay of cell-surface bound antibody on MCF-7 at 37°C) [7]: 11.1 min (unit from p-0380; none on the sheet) | MFI [8]: 2200 MFI | D.O 450 nm [9]: 0.099 D.O 450 nm | binding result [10]: no binding (tested: log [M] about -6.5 (about 3e-7 M)) | EC50 [11]: 0.526 nM | EC50 [12]: 0.758 nM

B2: m214F8 (antibody, V domains shown)
VH: B1 VH with P9S, M20L, Y35H, L48I, K63R, D66G, N77S
VL: B1 VL with I21F, S76T, V78L, T93A
notes: murine mAb, hybridoma CNCM I-4775, group G2
hIGF-1R phosphorylation in response to IGF-1 (western blot, MCF-7) [1]: > 80% | binding result [2]: no binding | % remaining rh IGF1R [3]: 29% | MFI 37°C (internalisation assay, MCF7) [3]: 111 MFI | Δ (MFI 4°C - MFI 37°C) [3]: 275 MFI | % internalisation [4]: 71% | ΔMFI [4]: 76 MFI | MFI 4°C [5]: 386 MFI | binding result [6]: no binding | HalfLife (decay of cell-surface bound antibody on MCF-7 at 37°C) [7]: 16.8 min (unit from p-0380; none on the sheet) | MFI [8]: 2140 MFI | D.O 450 nm [9]: 0.102 D.O 450 nm | MFI [13]: 132 MFI | binding result [14]: no binding (tested: log [M] about -6.5 (about 3e-7 M))

B3: m213B10 (antibody, V domains shown)
VH: B1 VH with P9S, Y35H, L48I, K63R, D66G, N77S
VL: B1 VL with S76T, V78L, T93A
notes: murine mAb, hybridoma CNCM I-4774, group G2
hIGF-1R phosphorylation in response to IGF-1 (western blot, MCF-7) [1]: > 80% | binding result [2]: no binding | % remaining rh IGF1R [3]: 30% | MFI 37°C (internalisation assay, MCF7) [3]: 115 MFI | Δ (MFI 4°C - MFI 37°C) [3]: 271 MFI | % internalisation [4]: 74% | ΔMFI [4]: 84 MFI | MFI 4°C [5]: 386 MFI | binding result [6]: no binding | HalfLife (decay of cell-surface bound antibody on MCF-7 at 37°C) [7]: 12.8 min (unit from p-0380; none on the sheet) | MFI [8]: 2060 MFI | D.O 450 nm [9]: 0.127 D.O 450 nm | MFI [13]: 122 MFI | binding result [14]: no binding (tested: log [M] about -6.5 (about 3e-7 M))
